This note sets out measurements from patent US20090305281, “NOVEL INHIBITORS OF RETROVIRAL REVERSE TRANSCRIPTACE” (THE CURATORS OF THE UNIVERSITY OF MISSOURI, published 2009).

Series [1] deals with T1, HIV-1 reverse transcriptase (HXB2, group M subtype B) (Human immunodeficiency virus 1, UniProt P04585 SEQ:1-560). Description: inhibition; DDDP, K+ buffer. Conditions: tags: expressed in E. coli. Here is the method:
(§1) Reactions were assembled in reaction buffer (50 mM Tris-HCl pH 8.3, 75 mM KCl, 5 mM MgCl2, 10 mM DTT) with 30 nM primer, 45 nM template and 0.2 mM dNTPs. After annealing primer and template strands, DNA aptamers were added. Reactions were initiated by adding RT to a final concentration of 3 nM active site. […] Additional reactions included 1 μM and 3 μM where indicated. After 10 min at 37° C., reactions were quenched by addition of 2 volumes (20 μl) of gel-loading buffer (95% formamide with 0.01% bromophenol blue). For reactions assessing monovalent ion dependence, 75 mM KCl was replaced with 75 mM NaCl where indicated.

Series [2] addresses T1, HIV-1 reverse transcriptase (HXB2, …). Put plainly: inhibition; DDDP, K+ buffer. Conditions: tags: expressed in E. coli. Here is the method: FIG. 13 Sequence plasticity of stems and loops. Inhibition of RT DDDP activity by aptamer variants. Aptamer concentrations (nM) are indicated above the lanes. (A) Aptamer TKQ4 retains inhibition even though it carries a G-to-A mutation in the fourth of the 12 G's that comprise the quadruplex. […] Similar titrations were carried out in triplicate for all aptamers for which IC50 values are reported. Aptamer R1T was included in subsequent panels to provide a consistent reference baseline of inhibition. (C) RT inhibition by aptamer SN, in which quadruplex loops are replaced with hexaethylene glycol. (D) and (E), RT inhibition by aptamers carrying mutations in helical stem domain, as detailed in text.
as §1
The source holds these as a separate data set.

The target is the same in series [3]. Description: inhibition; DDDP, K+ buffer; p136 states not significantly different from L1. The settings on record: tags: expressed in E. coli; hairpin + G4, T16 connector. On the procedure: as §1
The mark [4] stands for this setting: hairpin + G4, termini within quadruplex.

B1: RT6 (ssDNA)
DNA: ATCCGCCTGATTAGCGATACTCAGGCGTTAGGGAAGGGCGTCGAAAGCAGGGTGGGACTTGAGCAAAATCACCTGCAGGG
In the case of B1, the IC50 in series [1] (hairpin + G4) was found to be 36 nM.
Consider CGCCTGACCCTTCAGGCGTTGGGTGGGTGGGTGGG (ssDNA) [S4], for which the IC50 in series [2] (hairpin (CCCT tetraloop) + G4) turned out to be 32 nM.
Regarding CGCCTGATTAGCGATACTCAGGCGTTGGGCGGGCGGGCGGG (ssDNA) [R1C], the IC50 in series [2] (hairpin + G4) turned out to be 26 nM.
Turning to CGCCTGATTAGCGATACTCAGGCGTTGGGTGGGTGGGTGGG (ssDNA) [R1T], in series [1] (hairpin + G4), the IC50 is 14 nM.
For CGCCTGATTAGCGATACTCAGGCGAAGGGTGGGTGGGTGGG (ssDNA) [L6], the IC50 in series [1] (hairpin + G4, A2 connector) is 13 nM.
For CGCCTGATTAGCGATACTCAGGCGTTGGGAGGGAGGGAGGG (ssDNA) [R1A], the IC50 in series [2] (hairpin + G4) stood at 18 nM.
Take CGCCTGATTAGCGATACTCAGGCGTTTTGGGTGGGTGGGTGGG (ssDNA) [L3]: in series [1] (hairpin + G4, T4 connector), the IC50 came out at 13 nM.

B2: R8T (ssDNA)
DNA: CGCCTGATTAGCGATACTCAGGCGTTGGGTTTTTTTTGGGTTTTTTTTGGGTTTTTTTTGGG
In the case of B2, in series [2] (hairpin + G4), the IC50 is 20 nM.
Regarding GGGTGGGTGGGTTCGCCTGATTAGCGATACTCAGGCGTTGGG (ssDNA) [Ecut], the IC50 in series [1] (setting [4]) came to 99 nM.

B3: RT6-A (ssDNA)
DNA: ATCCGCCTGATTAGCGATACTCAGGCGTTAGGGAAGGGTAGCGATACAGGGTGGG
Turning to B3, in series [1] (hairpin + G4), the IC50 was 16 nM.
Regarding CGCCTGATTAGCGATACTCAGGCGTTTTTTTTGGGTGGGTGGGTGGG (ssDNA) [L4], in series [1] (hairpin + G4, T8 connector), the IC50 was found to be 28 nM.

B4: ZAM1 (ssDNA)
DNA: CGCCTGATTAGCGCGCGCCGCGTTTTCGCGGCGCGCGCTACTCAGGCGTTGGGTGGGTGGGTGGG
On to B4, for which the IC50 in series [2] (hairpin (22 bp) + G4) amounted to 10 nM.

B5: RT6-B (Vor) (ssDNA)
DNA: CGCCTGATTAGCGATACTCAGGCGTTAGGGAAGGGCGTCGAAAGCAGGGTGGG
As to B5, the IC50 in series [1] (hairpin + G4) is 5.7 nM.
CGTGATTAGCGATACTCACGTTGGGTGGGTGGGTGGG (ssDNA) [S1]: the IC50 in series [2] (hairpin + G4) was 59 nM.
With GGGTTCGCCTGATTAGCGATACTCAGGCGTTGGGTGGGTGGG (ssDNA) [Bcut], the IC50 in series [1] (setting [4]) was 48 nM.
Take GGGTGGGTTCGCCTGATTAGCGATACTCAGGCGTTGGGTGGG (ssDNA) [Acut]: the IC50 in series [1] (hairpin + G4, termini between 2nd and 3rd G triplets) was found to be 22 nM.
Regarding CCGGACTCATAGCGATTAGTCCGGTTGGGTGGGTGGGTGGG (ssDNA) [Srevstem], in series [2] (hairpin + G4), the IC50 was 26 nM.
Regarding CGCCTGATTAGCGATACTCAGGCGTTGGGTTGGGTTGGGTTGGG (ssDNA) [R2T], the IC50 in series [2] (hairpin + G4) came to 13 nM.
The same measure, in the same setting: in the case of CGGATTAGCGATACTCCGTTGGGTGGGTGGGTGGG (ssDNA) [S2] it was 110 nM.

B6: L10 (ssDNA)
DNA: CGCCTGATTAGCGATACTCAGGCGTTTTTTTTTTTTTTTTGGGTGGGTGGGTGGG
B6: the half-maximal inhibitory concentration (IC50) in series [3] was found to be 120 nM.
Turning to GGGTGGGTTGCGGACTCATAGCGATTAGTCCGCTTGGGTGGG (ssDNA) [Acutrev], the IC50 in series [1] (setting [4]) turned out to be 33 nM.
As to CGCCTGATTAGCGATACTCAGGCGTTGGGTTTTGGGTTTTGGGTTTTGGG (ssDNA) [R4T], the IC50 in series [2] (hairpin + G4) was around 35 nM.

In general, IC50 refers to the midpoint of a concentration-inhibition curve.
